Results published in paper PMC11198818, “Positive charges promote the recognition of proteins by the chaperone SlyD from Escherichia coli” (PLOS ONE, 2024).

Assays:
Test in all cases: ITC; VP-ITC (MicroCal), 30°C, 10 mM potassium phosphate buffer pH 7.6 or 7.8; SlyD or its variant 30 uM in the calorimetric cell, HiPIP precursor (RR-HiPIP) injected: 100 uM, 2x 22 injections of 10 uL (Fig 4); 200 uM, 23 injections of 10 uL (Fig 3)
Settings in all cases: both partners purified
[1] = molecular target: T1, SlyD F96N, C-terminally hexahistidine-tagged (E. coli, UniProt P0A9K9 1-196, F96N)
T1 construct: FKBP-type peptidyl-prolyl cis-trans isomerase SlyD, E. coli; the tag is fused to the C-terminal domain; not shown: His6, C-terminal, kept
T1 sequence: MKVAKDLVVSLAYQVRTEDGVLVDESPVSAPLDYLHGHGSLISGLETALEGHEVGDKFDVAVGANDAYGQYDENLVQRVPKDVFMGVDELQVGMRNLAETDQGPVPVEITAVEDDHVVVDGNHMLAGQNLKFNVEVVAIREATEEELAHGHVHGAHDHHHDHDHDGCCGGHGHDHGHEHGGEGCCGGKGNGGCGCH

[2] = molecular target: T2, SlyD E113A, C-terminally hexahistidine-tagged (E. coli, UniProt P0A9K9 1-196, E113A)
T2 construct: FKBP-type peptidyl-prolyl cis-trans isomerase SlyD, E. coli; the tag is fused to the C-terminal domain; not shown: His6, C-terminal, kept
T2 sequence: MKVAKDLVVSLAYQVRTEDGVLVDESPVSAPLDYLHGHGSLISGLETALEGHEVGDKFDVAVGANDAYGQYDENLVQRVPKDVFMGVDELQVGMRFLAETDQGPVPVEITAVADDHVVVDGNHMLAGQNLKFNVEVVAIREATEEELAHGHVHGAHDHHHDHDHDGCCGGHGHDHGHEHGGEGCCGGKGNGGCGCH

[3] = molecular target: T3, SlyD D115A, C-terminally hexahistidine-tagged (E. coli, UniProt P0A9K9 1-196, D115A)
T3 construct: FKBP-type peptidyl-prolyl cis-trans isomerase SlyD, E. coli; the tag is fused to the C-terminal domain; not shown: His6, C-terminal, kept
T3 sequence: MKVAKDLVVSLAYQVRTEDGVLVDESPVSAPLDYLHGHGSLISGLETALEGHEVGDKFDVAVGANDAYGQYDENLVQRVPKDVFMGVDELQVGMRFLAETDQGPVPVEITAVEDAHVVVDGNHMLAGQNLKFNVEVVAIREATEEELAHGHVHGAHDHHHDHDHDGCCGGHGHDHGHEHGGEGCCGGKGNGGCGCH

[4] = molecular target: T4, SlyD Y68S, C-terminally hexahistidine-tagged (E. coli, UniProt P0A9K9 1-196, Y68S)
T4 construct: FKBP-type peptidyl-prolyl cis-trans isomerase SlyD, E. coli; the tag is fused to the C-terminal domain; not shown: His6, C-terminal, kept
T4 sequence: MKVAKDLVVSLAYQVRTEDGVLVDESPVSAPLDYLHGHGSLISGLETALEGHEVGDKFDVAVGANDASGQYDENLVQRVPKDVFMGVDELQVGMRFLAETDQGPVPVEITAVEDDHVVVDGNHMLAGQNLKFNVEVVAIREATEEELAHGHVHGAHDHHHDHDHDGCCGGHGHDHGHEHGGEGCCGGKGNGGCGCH

[5] = molecular target: T5, SlyD E89A, C-terminally hexahistidine-tagged (E. coli, UniProt P0A9K9 1-196, E89A)
T5 construct: FKBP-type peptidyl-prolyl cis-trans isomerase SlyD, E. coli; the tag is fused to the C-terminal domain; not shown: His6, C-terminal, kept
T5 sequence: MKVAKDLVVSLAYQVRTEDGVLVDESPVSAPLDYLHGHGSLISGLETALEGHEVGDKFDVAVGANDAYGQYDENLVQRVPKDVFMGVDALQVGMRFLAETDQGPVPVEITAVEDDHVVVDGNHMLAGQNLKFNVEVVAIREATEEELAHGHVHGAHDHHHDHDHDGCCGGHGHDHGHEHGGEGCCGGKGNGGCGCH

[6] = molecular target: T6, SlyD F96A, C-terminally hexahistidine-tagged (E. coli, UniProt P0A9K9 1-196, F96A)
T6 construct: FKBP-type peptidyl-prolyl cis-trans isomerase SlyD, E. coli; the tag is fused to the C-terminal domain; not shown: His6, C-terminal, kept
T6 sequence: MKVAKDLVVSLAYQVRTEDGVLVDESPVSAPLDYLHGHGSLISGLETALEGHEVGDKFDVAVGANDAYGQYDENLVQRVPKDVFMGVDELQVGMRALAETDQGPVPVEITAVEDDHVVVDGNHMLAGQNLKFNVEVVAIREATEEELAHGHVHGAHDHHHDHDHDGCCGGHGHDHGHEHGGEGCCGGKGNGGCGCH

[7] = molecular target: T7, SlyD F96G, C-terminally hexahistidine-tagged (E. coli, UniProt P0A9K9 1-196, F96G)
T7 construct: FKBP-type peptidyl-prolyl cis-trans isomerase SlyD, E. coli; the tag is fused to the C-terminal domain; not shown: His6, C-terminal, kept
T7 sequence: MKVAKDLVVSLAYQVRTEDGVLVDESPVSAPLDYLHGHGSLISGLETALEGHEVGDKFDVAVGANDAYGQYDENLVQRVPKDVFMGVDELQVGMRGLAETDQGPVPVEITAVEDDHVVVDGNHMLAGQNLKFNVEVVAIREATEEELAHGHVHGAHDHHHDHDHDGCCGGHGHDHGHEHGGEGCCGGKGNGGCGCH

B1: HiPIP precursor (RR-HiPIP) from Allochromatium vinosum (natural protein)
chain: MSDKPISKSRRDAVKVMLGTAAAIPMINLVGFGTARASAPANAVAADDATAIALKYNQDATKSERVAAARPGLPPEEQHCANCQFMQADAAGATDEWKGCQLFPGKLINVNGWCASWTLKAG
modifications: HiPIP precursor; fully folded, [4Fe-4S] cluster presumed; signal peptide retained
[1]
  Kd: 8850 ± 2780 nM
  stoichiometry N: 0.628 ± 0.036
[2]
  Kd: 490 ± 70 nM
  stoichiometry N: 0.616 ± 0.008
[3]
  Kd: 270 ± 20 nM
  stoichiometry N: 0.541 ± 0.026
[4]
  stoichiometry N: 0.462 ± 0.003
[5]
  Kd: 380 ± 40 nM
  stoichiometry N: 0.404 ± 0.004
[6]
  Kd: 4880 ± 540 nM
  stoichiometry N: 0.66 ± 0.013
[7]
  Kd: 5650 ± 300 nM
  stoichiometry N: 0.575 ± 0.007
